Laboratory results published in publication doi:10.1101/679431 (bioRxiv, 2019).

B1: endogenous TRAP1 (natural protein)
chain: STQTAEDKEEPLHSIISSTESVQGSTSKHEFQAETKKLLDIVARSLYSEKEVFIRELISNASDALEKLRHKLVSDGQALPEMEIHLQTNAEKGTITIQDTGIGMTQEELVSNLGTIARSGSKAFLDALQNQAEASSKIIGQFGVGFYSAFMVADRVEVYSRSAAPGSLGYQWLSDGSGVFEIAEASGVRTGTKIIIHLKSDCKEFSSEARVRDVVTKYSNFVSFPLYLNGRRMNTLQAIWMMDPKDVREWQHEEFYRYVAQAHDKPRYTLHYKTDAPLNIRSIFYVPDMKPSMFDVSRELGSSVALYSRKVLIQTKATDILPKWLRFIRGVVDSEDIPLNLSRELLQESALIRKLRDVLQQRLIKFFIDQSKKDAEKYAKFFEDYGLFMREGIVTATEQEVKEDIAKLLRYESSALPSGQLTSLSEYASRMRAGTRNIYYLCAPNRHLAEHSPYYEAMKKKDTEVLFCFEQFDELTLLHLREFDKKKLISVETDIVVDHYKEEKFEDRSPAAECLSEKETEELMAWMRNVLGSRVTNVKVTLRLDTHPAMVTVLEMGAARHFLRMQQLAKTQEERAQLLQPTLEINPRHALIKKLNQLRASEPGLAQLLVDQIYENAMIAAGLVDDPRAMVGRLNELLVKALERH
B2: TRAP1-GST fusion protein (natural protein)
chain: B1 chain

What was measured:
[1] = molecular target: the molecule itself; experiment: native gel or EMSA
[2] = molecular target: the molecule itself; experiment: affinity purification with mass spectrometry + native gel or EMSA

Protein	stoichiometry N [1]	stoichiometry N [2]
B1	4	
B2		4
